Reference: US20220364069A1, “METHOD FOR THE PRODUCTION OF AN ENZYMATIC COMPOSITION COMPRISING A RECOMBINANT ENDOPEPTIDASE” (NEMYSIS LIMITED, priority 2019, published 2022)
Entries after “also recorded” stand apart in the source; their conditions may differ.

Legend:
[1] = Activity of culture supernatant toward sucAAPF-AMC at various pH; type: biochemical; conditions: recombinant E40 culture supernatant
Experimental: FIG. 1. Activity of Actinoallomurus A8 culture supernatant fraction containing the native E40. A: relative activity toward the substrate sucAlaAlaProPhe-AMC (sucAAPF-AMC) at various pH values (the optimum —100% activity— is at pH 5). B: Gliadin digestion after 2 hours of incubation at 37° C., pH 3. Gel stained with Coomassie R250 brilliant blue; Lane 1: gliadin alone, lane 2: gliadin+E40-containing supernatant fraction.
FIG. 3. Recombinant E40 (SEQ ID NO: 2) obtained by S. lividans TK24/p1J86/e40 submerged fermentation, at flask scale (panels A-C) or in a 15 L bioreactor, followed by purification (panels D-E). A: activity toward the substrate sucAAPF-AMC at pH 5 of supernatant samples taken at different fermentation times (♦72, ▴96, ●168, ▪192 fermentation hours) from the producing S. lividans TK24/p1J86/E40 (E40, continuous line) and absence of activity of supernatant samples taken from the pIJ86-empty control strain (ctr, dashed lines). Activity is shown as relative fluorescent units (rfu, Y axis) produced in time (X axis). […] D: profile of an enzyme preparation comprising recombinant E40 purified from the 15 L fermentation; lane 1: final enzyme preparation comprising recombinant E40 stained with Coomassie (the arrow indicates recombinant E40), lane 2: zymography as in C, lane 3: band of gelatin hydrolysis after 2 hours of digestion at 37° C. and pH 5, visualized after Coomassie staining of the gelatin substrate. E: relative activity (%) of recombinant E40 in the purified enzyme preparation at different pH values (from 2 to 8), evaluated with the substrate suc-Ala-Ala-Pro-Phe-pNA.
As well as native E40, recombinant E40 was active in the pH range 3-6, with an optimum at pH 5 (FIG. 3, panel B).

pepsin = biological target: T1, pepsin (Sus scrofa, UniProt P00791); assay: Resistance of E40 to pepsin (suc-Ala-Ala-Pro-Phe-pNA cleavage); type: biochemical; conditions: pH 4, 4.5 and 5; protease 1:2 (w/w) versus E40; 110 minutes, 37° C.
T1 construct: purchased Sigma-Aldrich (Milan, Italy)
Experimental: (§1) The resistance of recombinant E40, obtained by the method of the invention, to the proteolytic activity of gastric (pepsin) and duodenal (trypsin) digestive proteases was further evaluated (FIG. 4), using suc-Ala-Ala-Pro-Phe-pNA as substrate. Aqueous solutions of E40 enzyme, alone or in combination with pepsin and/or trypsin (0.2 mg/ml E40, 0.1 mg/ml Pepsin or Trypsin), were diluted in citrate-phosphate buffer containing suc-Ala-Ala-Pro-Phe-pNA at pH 4, 4.5 and 5 for pepsin, and at pH 6 and 7 for trypsin. Final concentrations in reaction mix were: 200 μM substrate, 1-4 nM E40 for incubations at pH 4 to 5, or 4 nM and 7 nM for incubations at pH 6 or 7, respectively (E40 concentration was adjusted according to optimum pH). The digestive protease was maintained in the ratio 1:2 (w/w) versus E40.
(§2) Reactions (200 μl volume in 96-wells flat bottom ptiter plates) were protracted for 110 minutes at 37° C. Absorbance was monitored every 10 min for determining the enzymatic activity. Pepsin and trypsin without E40 were processed in the same way and tested in the same condition as reference control. Each analysis was carried out in duplicate.

trypsin = assay: Resistance of E40 to trypsin (suc-Ala-Ala-Pro-Phe-pNA cleavage); type: biochemical; conditions: pH 6 and 7; protease 1:2 (w/w) versus E40; 110 minutes, 37° C.
Experimental: as §1, §2

33-mer gliadin peptide = assay: Digestion of 33-mer gliadin peptide monitored by LC-MS/MS; type: biochemical
Experimental: The 33-mer gliadin peptide degradation was monitored by LC-MS/MS, before (FIG. 5, panel A) and after (FIG. 5, panels B-E) digestion by recombinant E40. Digestion was performed in U-bottom 96-wells microtiter plate; 33-mer was diluted in citrate phosphate buffer (pH 5) to 5 mg/ml, mixed with the enzyme preparation comprising recombinant E40 diluted in the same buffer (1:48 enzyme vs substrate molar ratio) and incubated at 37° C. At the time points 0, 15, 30 and 60 minutes, aliquots (10 μl) were taken, and reactions were stopped by boiling for 3 minutes before being analyzed by LC-MS/MS.
Samples were analyzed by HPLC system Accela Instrument (Thermo Fisher Scientific, San Jose, Calif.) coupled to both UV detector and LTQ-XL ion trap mass spectrometer (Thermo Fisher Scientific). […] E40 cleaving site occurs between F-P and Q-L residues of gliadin, leading to short peptides lacking of T-cell stimulatory capacity (FIG. 5, F)^3. This finding was also observed at more diluted E40 concentration (1:96, molar ratio): in that case complete 33-mer degradation took 30 minutes (not shown).

gluten of bread = assay: In vitro oral-gastric digestion of bread, gluten by Elisa-R5 competitive; type: biochemical, T. aestivum
Experimental: In order to evaluate the efficiency of E40 enzyme as oral supplement to abolish the gluten intake in patients, in vitro oral-gastric digestion model was applied. Digestion step of bread (T. aestivum) was carried out under simulated physiological condition including oral mastication and presence of digestive gastric enzymes. Digestion time was selected according to the average time of chyme's transit in the gastric compartments. E40 enzyme preparation was added at beginning of the simulated gastric phase. The destruction of the T cell epitopes and toxic peptides was tested using monoclonal antibodies (Elisa-R5 competitive), according to the manufacturer's and to the AOAC guidelines.

peanut proteins = assay: In vitro digestion of peanut proteins (SDS-PAGE, HPLC); type: biochemical; conditions: 1:20 enzyme:substrate, up to 120 min
Experimental: Degradation of peanuts proteins incubated in the presence of recombinant E40 has been assessed by SDS-PAGE and HPLC analysis. Results are shown in FIG. 9 (A: SDS-PAGE; B: HPLC analysis).

T1 sequence (P00791 60-385): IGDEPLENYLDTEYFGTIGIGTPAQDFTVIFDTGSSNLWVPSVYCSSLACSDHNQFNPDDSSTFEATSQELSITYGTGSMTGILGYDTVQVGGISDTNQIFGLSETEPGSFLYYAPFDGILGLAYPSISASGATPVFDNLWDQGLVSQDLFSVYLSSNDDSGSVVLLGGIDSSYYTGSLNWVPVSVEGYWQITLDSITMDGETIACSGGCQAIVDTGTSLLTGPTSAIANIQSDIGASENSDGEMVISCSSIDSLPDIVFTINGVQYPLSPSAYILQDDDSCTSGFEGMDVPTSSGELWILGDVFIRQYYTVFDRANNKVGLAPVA
Sequence of 33-mer gliadin peptide (as listed by the source): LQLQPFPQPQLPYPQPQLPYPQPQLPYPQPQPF

B1: E40: Actinoallomurus endopeptidase with glutenase activity, sequence comprising SEQ ID NO: 1; recombinant histidine-tagged form SEQ ID NO: 2 from S. lividans (protein)
chain: AAPSGLSPANLQSAYKLPSSTAGSGQTVAIVDAYDAPTAEADLNVYRSQFGLGACTTANGCFKKVDQNGGTSYPRKDGGWAQEISLDLDMVSAVCPNCKIVLVEAKTNSFANLGTAENTAASLANVISNSYGGSDASDASYGSYYNHPGKAITVSSGDAGYGVEYPASSHYVTAVGGTSLRTASTSRGWSETAWSGAGSGCSAYNTALSGQSGLTGCSRRAVADVSAVADPATGVAVYDSTAYQGQSGWMVFGGTSVAAPIIGGVYGLAANAASIDNNYPYAHTSSLFDVTSGSNGTCTTTKWCTAGTGWDGPTGLGTPNGTGAFGHHHHHH
modifications: Actinoallomurus
pH range of activity [1]: 3-6 | pH optimum of relative activity ([1]; 168 hours of fermentation, sucAAPF-AMC): 5 | E40 cleaving activity in presence of pepsin (pepsin): unaffected; also recorded: slightly enhanced | E40 cleaving activity in presence of trypsin (trypsin): unaffected | time to complete disappearance of native 33-mer peptide signal (33-mer gliadin peptide; 1:48 enzyme vs substrate molar ratio, pH 5, 37° C.): 15 min | time to complete 33-mer degradation (33-mer gliadin peptide; 1:96 molar ratio): 30 min | gluten content of bread digest (Elisa-R5) (gluten of bread; E40 added at beginning of simulated gastric phase): 16.2 ppm (ng/mL) | gluten content of digested bread including E40 (gluten of bread; oral-gastric digest): < 20 ppm | peanut protein digestion (peanut proteins): degradation of peanut proteins
